Test results reported in patent US12138316B2, “Anti-B7H3 antibody-drug conjugate and use thereof” (Duality Biologics (Suzhou) Co., Ltd., priority 2023, dated 2024).
Each block holds one molecule with its values, some of them ahead of it.

What was measured:
[1] = Pharmacokinetic study, single intravenous infusion in cynomolgus monkeys; settings: both sexes, cynomolgus monkey, in vivo
Procedure: 18 cynomolgus monkeys (half female and half male) were weighed one day before administration, stratified based on the weight, and then randomly divided into 3 groups (3 females and 3 males/group): a low dose group (1 mg/kg), a medium dose group (3 mg/kg), and a high dose group (10 mg/kg). […] Blood was collected from the forelimb veins of cynomolgus monkeys in each group, and treated samples of the blood collected at 0 h before and 0.5 […], and 672 h after the administration were used as PK samples. After the blood collection at each time point was completed, serum was obtained by centrifugation for sample analysis.

human B7H3 = target: T1, human B7H3 (Homo sapiens, UniProt Q5ZPR3); assay: FACS binding to human B7H3-expressing cells MCF-7
T1 construct: MCF-7 cells expressing human full-length B7H3; host or cells: MCF-7
T1 sequence (Q5ZPR3 29-534): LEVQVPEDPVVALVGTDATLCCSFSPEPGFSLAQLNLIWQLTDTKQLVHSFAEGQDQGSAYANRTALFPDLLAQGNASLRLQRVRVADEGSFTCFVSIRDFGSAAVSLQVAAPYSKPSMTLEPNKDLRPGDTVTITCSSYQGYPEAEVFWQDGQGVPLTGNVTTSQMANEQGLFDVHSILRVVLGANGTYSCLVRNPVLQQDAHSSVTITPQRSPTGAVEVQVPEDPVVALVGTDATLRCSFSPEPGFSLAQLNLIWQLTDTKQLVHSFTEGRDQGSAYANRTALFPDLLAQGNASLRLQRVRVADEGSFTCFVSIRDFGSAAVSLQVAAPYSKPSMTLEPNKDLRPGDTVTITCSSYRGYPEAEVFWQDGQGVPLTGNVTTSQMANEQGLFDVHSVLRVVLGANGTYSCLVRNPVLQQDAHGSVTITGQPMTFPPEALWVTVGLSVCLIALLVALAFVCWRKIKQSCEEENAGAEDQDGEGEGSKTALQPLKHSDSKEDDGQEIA
Procedure: (§1) FACS was used to detect the binding of antibodies to human B7H3. This method allows quantitative analysis and identification of specific molecules expressed on the surface of living cells. Unlabeled cells were used as a control to set a threshold before the assay, and the percentage change for each group that exceeded the fluorescence intensity threshold was analyzed. MCF-7 cells expressing human full-length B7H3 (1×10^5 cells/well) were incubated with various concentrations of antibodies (3.16-fold serially diluted with 1×DPBS/1% BSA from 50 nM to 0.0005 nM) in a volume of 100 μL/well in a refrigerator set to 4° C. for 1 h. Anti-human B7H3 reference antibody enoblituzumab (MacroGeneics) was used as a positive control. Human IgG1 isotype antibody was used as a negative control. After washing the cells with 1×DPBS/1% BSA, Alexa 647 goat anti-human antibody (diluted in a 1:500 ratio in 1×DPBS/1% BSA) was added. The cells were incubated in a refrigerator set to 4° C. for 0.5 h in the dark. The mean fluorescence intensity (MFI) of the cells was measured by a flow cytometry and analyzed by FlowJo. EC50 values were calculated by four-parameter non-linear regression analysis using GraphPad Prism 7 software.

cynomolgus monkey B7H3 [2] = assay: FACS binding to cynomolgus monkey B7H3-transfected stable cell pool
Procedure: as §1, with “to cynomolgus monkey” for “to human”, “B7H3. FlpinCHO” for “B7H3. This method allows quantitative analysis and identification of specific molecules expressed on the surface of living cells. Unlabeled”, “were transfected with cynomolgus monkey B7H3 (W3XX088-FlpinCHO.cProl.pool) (1×10^5 cells/well),” for “were used as a control to set a threshold before the assay,”, “the transfected” for “the percentage change for each group that exceeded the fluorescence intensity threshold was analyzed. MCF-7”, “cells” for “cells expressing human full-length B7H3 (1×10^5 cells/well)”

human 4IgB7H3 = target: T2, human 4IgB7H3 (Homo sapiens, UniProt Q5ZPR3); assay: Binding affinity for human 4IgB7H3 (SPR)
T2 construct: Uniprot ID: Q5ZPR3, amino acids 29-461; made in house; host or cells: Expi293F
T2 sequence (Q5ZPR3 29-461): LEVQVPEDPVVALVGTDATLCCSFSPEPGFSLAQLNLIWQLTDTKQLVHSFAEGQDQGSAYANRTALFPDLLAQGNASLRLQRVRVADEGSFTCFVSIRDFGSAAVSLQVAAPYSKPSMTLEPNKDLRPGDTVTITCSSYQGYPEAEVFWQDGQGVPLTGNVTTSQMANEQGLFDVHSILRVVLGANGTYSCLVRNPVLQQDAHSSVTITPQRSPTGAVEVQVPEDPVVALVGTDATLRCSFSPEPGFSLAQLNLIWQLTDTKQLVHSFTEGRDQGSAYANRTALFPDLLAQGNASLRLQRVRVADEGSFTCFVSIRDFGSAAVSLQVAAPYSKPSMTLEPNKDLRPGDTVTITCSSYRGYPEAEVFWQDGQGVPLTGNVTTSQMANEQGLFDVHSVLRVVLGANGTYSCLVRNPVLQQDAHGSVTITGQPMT
Procedure: (§2) The affinity of antibodies for human 4IgB7H3 was determined using surface plasmon resonance (SPR). The affinity of antibodies for human 4IgB7H3 was determined by Biacore 8K. An activator was prepared by mixing 400 mM EDC and 100 mM NHS (GE) immediately prior to injection into the channel. The CM5 sensor chip was activated for 420 seconds with the activator. Goat anti-human Fc IgG (30 μg/mL in 10 mM NaAc, pH 4.5) was then injected into the channel at a flow rate of 10 μL/min for 420 seconds. The chip was deactivated by 1 M ethanolamine hydrochloric acid. The antibodies diluted in running buffer (1×HBS-EP+) were injected into the channel at a flow rate of 10 μL/min for 30 seconds. Seven concentrations (100 nM, 50 nM, 25 nM, 12.5 nM, 6.25 nM, 2.125 nM, and 1.563 nM) of analyte human 4IgB7H3 were injected sequentially into the channel at a flow rate of 30 μL/min for an association phase of 180 seconds, followed by dissociation of 3600 seconds. Glycine (10 mM, pH 1.5) was injected as regeneration buffer after the dissociation phase.
(§3) The sensorgrams for the reference channel and the buffer channel were subtracted from the test sensorgrams. The experimental data were fitted with a 1:1 binding model. The molecular weight of the human 4IgB7H3 used in the calculation was 47.8 kDa.

human 2IgB7H3 = target: T3, human 2IgB7H3 (Homo sapiens, UniProt Q5ZPR3); assay: Binding affinity for human 2IgB7H3 (SPR)
T3 construct: His tag; purchased ACROBiosystems B73-H52E2
T3 sequence (Q5ZPR3 29-316 isoform Q5ZPR3-2 limits assumed): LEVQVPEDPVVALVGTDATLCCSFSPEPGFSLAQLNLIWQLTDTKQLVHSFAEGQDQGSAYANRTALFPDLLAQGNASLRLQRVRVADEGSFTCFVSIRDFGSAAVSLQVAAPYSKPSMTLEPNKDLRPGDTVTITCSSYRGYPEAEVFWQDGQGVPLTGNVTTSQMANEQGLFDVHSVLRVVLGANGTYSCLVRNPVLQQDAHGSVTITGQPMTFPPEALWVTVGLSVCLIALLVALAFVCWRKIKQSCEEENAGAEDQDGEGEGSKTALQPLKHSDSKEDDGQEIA
Procedure: The affinity of antibodies for human 2IgB7H3 was determined using surface plasmon resonance (SPR). The affinity of antibodies for human 2IgB7H3 was determined by Biacore 8K. An activator was prepared by mixing 400 mM EDC and 100 mM NHS (GE) immediately prior to injection into the channel. The CM5 sensor chip was activated for 420 seconds with the activator. Goat anti-human Fc IgG (30 μg/mL in 10 mM NaAc, pH 4.5) was then injected into the channel at a flow rate of 10 μL/min for 420 seconds. The chip was deactivated by 1 M ethanolamine hydrochloric acid. The antibodies diluted in running buffer (1×HBS-EP+) were injected into the channel at a flow rate of 10 μL/min for 30 seconds. Seven concentrations (500 nM, 250 nM, 125 nM, 62.5 nM, 31.25 nM, 15.625 nM, and 7.813 nM) of analyte human 2IgB7H3 were injected sequentially into the channel at a flow rate of 30 μL/min for an association phase of 120 seconds, followed by dissociation of 300 seconds. Glycine (10 mM, pH 1.5) was injected as regeneration buffer after the dissociation phase.
The sensorgrams for the reference channel and the buffer channel were subtracted from the test sensorgrams. The experimental data were fitted with a 1:1 binding model. The molecular weight of the human 2IgB7H3 used in the calculation was 25.2 kDa.

cynomolgus monkey B7H3 [3] = assay: Binding affinity for cynomolgus monkey B7H3 (SPR)
Procedure: as §2, with “cynomolgus monkey B7H3” for “human 4IgB7H3”, “Seven concentrations (100 nM, 50 nM, 25 nM, 12.5 nM, 6.25 nM, 2.125 nM, and 1.563 nM) of analyte human 4IgB7H3 were injected sequentially into the channel at a flow rate of 30 μL/min for an association phase of 180 seconds, followed by dissociation of 3600 seconds.” left out
as §3, with “data for 6 analyte concentrations (50 nM, 25 nM, 12.5 nM, 6.25 nM, 3.125 nM, and 1.563 nM)” for “data”, “cynomolgus monkey B7H3” for “human 4IgB7H3”, “49” for “47.8”

[4] = system: human B7H3-expressing cells MCF-7; assay: Internalization test (HCS) in MCF-7 cells; assay type: cell-based
Procedure: Antibody internalization was determined by operetta CLS (PerkinElmer), a high-content imaging and analysis system that can collect and analyze images of samples at high speed and high sensitivity. MCF-7 cells expressing human full-length B7H3 (1.5×10^4 cells/well) were seeded into a 96-well clear bottom black plate pre-coated with 8 μg/mL poly-D-lysine. After incubation in an incubator set to 37° C., 5% CO2 overnight, various concentrations of the antibodies (3.16-fold serially diluted with 1×DPBS/1% BSA from 50 nM to 0.0005 nM) were incubated in a volume of 100 μL/well in a refrigerator set to 4° C. for 2 h. Anti-human B7H3 reference antibody enoblituzumab (MacroGeneics) was used as a positive control. Human IgG1 isotype antibody was used as a negative control. After washing the cells with 1×DPBS/1% BSA, Alexa 647 goat anti-human antibody (diluted in a 1:500 ratio in 1×DPBS/1% BSA) was added. The cells were incubated in a refrigerator set to 4° C. for 1 h in the dark. The cells were then washed once and resuspended in 1×DPBS/1% BSA at 37° C. for 2 h. […] The mean fluorescence intensity (MFI) of the cells was measured and analyzed by operetta CLS. EC50 values were calculated by four-parameter non-linear regression analysis using GraphPad Prism 7 software.

Molecule: CC[C@@]1(O)C(=O)OCc2c1cc1n(c2=O)Cc2c-1nc1cc(F)c(C)c3c1c2[C@@H](NC(=O)C[C@H](C)O)CC3 [P-III-30]
AUC(0-t) ([1]; 3 mg/kg): 1.07 ng·h/mL | Cmax ([1]; 3 mg/kg): 0.133 ng/mL | AUC(0-t) ([1]; 10 mg/kg): 44.5 ng·h/mL | Cmax ([1]; 10 mg/kg): 0.573 ng/mL

Maximum MFI (human B7H3): 4644 | ka (human 4IgB7H3): 124000 M⁻¹ s⁻¹ | kd (dissociation rate constant) (human 4IgB7H3): 0.000126 s⁻¹ | ka (human 2IgB7H3): 64400 M⁻¹ s⁻¹ | kd (dissociation rate constant) (human 2IgB7H3): 0.0168 s⁻¹ | ka (cynomolgus monkey B7H3 [3]): 185000 M⁻¹ s⁻¹ | kd (dissociation rate constant) (cynomolgus monkey B7H3 [3]): 8.14e-05 s⁻¹
B1: Enoblituzumab (MacroGenics): anti-B7H3 benchmark antibody (MacroGenics), SEQ ID NOs: 117 and 119 in U.S. 20120294796A1 (antibody, chains of the INN, looked up)
heavy: EVQLVESGGGLVQPGGSLRLSCAASGFTFSSFGMHWVRQAPGKGLEWVAYISSDSSAIYYADTVKGRFTISRDNAKNSLYLQMNSLRDEDTAVYYCGRGRENIYYGSRLDYWGQGTTVTVSSASTKGPSVFPLAPSSKSTSGGTAALGCLVKDYFPEPVTVSWNSGALTSGVHTFPAVLQSSGLYSLSSVVTVPSSSLGTQTYICNVNHKPSNTKVDKRVEPKSCDKTHTCPPCPAPELVGGPSVFLLPPKPKDTLMISRTPEVTCVVVDVSHEDPEVKFNWYVDGVEVHNAKTKPPEEQYNSTLRVVSVLTVLHQDWLNGKEYKCKVSNKALPAPIEKTISKAKGQPREPQVYTLPPSREEMTKNQVSLTCLVKGFYPSDIAVEWESNGQPENNYKTTPLVLDSDGSFFLYSKLTVDKSRWQQGNVFSCSVMHEALHNHYTQKSLSLSPG
light: DIQLTQSPSFLSASVGDRVTITCKASQNVDTNVAWYQQKPGKAPKALIYSASYRYSGVPSRFSGSGSGTDFTLTISSLQPEDFATYYCQQYNNYPFTFGQGTKLEIKRTVAAPSVFIFPPSDEQLKSGTASVVCLLNNFYPREAKVQWKVDNALQSGNSQESVTEQDSKDSTYSLSSTLTLSKADYEKHKVYACEVTHQGLSSPVTKSFNRGEC
Maximum MFI (cynomolgus monkey B7H3 [2]): 19700 | Antibody internalization Maximum MFI [4]: 39777
